Assay results published in patent US20100184959A1 (AstraZeneca / MedImmune, published 2010).

Target: T1, human C1q (human, UniProt P02745 23-245; P02746 28-253; P02747 29-245)
T1 construct: Human C1q (Sigma) in the ELISA; hC1q coated at 100 nM in the RIA; also called hC1q
Experiment: RIA, 35S-labelled Fc on coated C1q
From the text: IgG1 Fc variants arising from round three outputs of Fcγ1 selections against human C1q using ribosome display, were screened for binding using the primary RIA as described in Jermutus et al. (2001, PNAS 98(1): 75-80). In brief, the Fc region from the plasmid for each variant (96 well format) was PCR amplified to produce a linear DNA template. This template was gel purified and reamplified attaching the T7 promoter sequence for T7 directed in vitro transcription and the resulting mRNA purified on G25 Sephadex columns. For each variant, in vitro translations in the presence of 35S-labelled methionine was performed at 37° C. for 40 mins. The translations were stopped with PBS with 0.05% Tween 20. The translation mixture was incubated on a plate coated with 100 nM hC1q for 2 hours at room temperature. Plates were washed three times in PBS with 0.05% Tween 20 and three times in PBS. The remaining radioactivity was eluted with 0.1M triethylamine and quantified by liquid scintillation counting.

T1 sequence (P02745 23-245 limits assumed, chain 1 of 3): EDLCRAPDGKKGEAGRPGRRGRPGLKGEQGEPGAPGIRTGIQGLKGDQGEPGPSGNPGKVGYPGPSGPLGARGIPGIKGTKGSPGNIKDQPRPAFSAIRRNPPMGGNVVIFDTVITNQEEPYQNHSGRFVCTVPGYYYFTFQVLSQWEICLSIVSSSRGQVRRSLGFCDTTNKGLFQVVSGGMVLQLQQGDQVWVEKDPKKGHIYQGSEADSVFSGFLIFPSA
T1 sequence (P02746 28-253 limits assumed, chain 2 of 3): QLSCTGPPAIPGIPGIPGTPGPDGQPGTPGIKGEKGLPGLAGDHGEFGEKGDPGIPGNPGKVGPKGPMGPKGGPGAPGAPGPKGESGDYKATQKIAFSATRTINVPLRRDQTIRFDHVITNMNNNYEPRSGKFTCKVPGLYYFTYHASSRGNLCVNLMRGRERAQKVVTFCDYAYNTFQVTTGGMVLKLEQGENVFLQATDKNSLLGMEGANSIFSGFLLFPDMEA
T1 sequence (P02747 29-245 limits assumed, chain 3 of 3): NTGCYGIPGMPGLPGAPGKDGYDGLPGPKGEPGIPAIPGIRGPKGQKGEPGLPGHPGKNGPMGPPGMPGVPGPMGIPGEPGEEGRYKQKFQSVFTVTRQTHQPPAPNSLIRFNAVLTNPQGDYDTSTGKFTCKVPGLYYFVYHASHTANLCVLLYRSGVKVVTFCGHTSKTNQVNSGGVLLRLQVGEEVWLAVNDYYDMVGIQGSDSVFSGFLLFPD

RIA for C1q: 1.5 fold over wild-type
B1: Fc polypeptide variant 2F01 (Fcγ1, in vitro translated) (other)
chain: AHTCPPCPAPELLGGPPVFLFPPKPKDTLMIPRTPEVTCVVVDVNHEDPEVKFNWYVDGVEVRNAKTKPREEQYNSTYRVVSVLTVLHQDWLSGKEYKCKVSNKALPAPIEKTISKAKGQPREPQVYTLPPSREEMTKNQVSLTCLVKGLYPSDITVEWESNGQPENDCKTTPPVLDSDGSSFLYSKLTVDKSRWQQGNVFSCSVMHKAPHNHYTQKSLSLSPGE
notes: Fc region only, in vitro translated with 35S-methionine for RIA
